Laboratory results: paper PMC7948760, “Regulation of factor V and factor V-short by TFPIα: Relationship between B-domain proteolysis and binding” (The Journal of Biological Chemistry, 2021)
Ends that are not written are not given here.

T1: FV-short-RQ∗ (FV-short-RQ precleaved at Arg709 with thrombin) (human, UniProt P12259 29-737; P12259 738-2224, Δ756–1458 | Arg^1545 replaced with Gln)
T1 construct: coagulation factor V heavy chain (HC), released by cleavage at Arg709; coagulation factor V, rest of the shortened B-domain with AR2 joined to the light chain; also called FV-short cleaved at Arg709; source: FV-short-RQ (BHK cells, purified), 300 nM incubated with 2 nM thrombin 30 min at 37 °C, quenched with hirudin
T1 sequence (looked up) 1: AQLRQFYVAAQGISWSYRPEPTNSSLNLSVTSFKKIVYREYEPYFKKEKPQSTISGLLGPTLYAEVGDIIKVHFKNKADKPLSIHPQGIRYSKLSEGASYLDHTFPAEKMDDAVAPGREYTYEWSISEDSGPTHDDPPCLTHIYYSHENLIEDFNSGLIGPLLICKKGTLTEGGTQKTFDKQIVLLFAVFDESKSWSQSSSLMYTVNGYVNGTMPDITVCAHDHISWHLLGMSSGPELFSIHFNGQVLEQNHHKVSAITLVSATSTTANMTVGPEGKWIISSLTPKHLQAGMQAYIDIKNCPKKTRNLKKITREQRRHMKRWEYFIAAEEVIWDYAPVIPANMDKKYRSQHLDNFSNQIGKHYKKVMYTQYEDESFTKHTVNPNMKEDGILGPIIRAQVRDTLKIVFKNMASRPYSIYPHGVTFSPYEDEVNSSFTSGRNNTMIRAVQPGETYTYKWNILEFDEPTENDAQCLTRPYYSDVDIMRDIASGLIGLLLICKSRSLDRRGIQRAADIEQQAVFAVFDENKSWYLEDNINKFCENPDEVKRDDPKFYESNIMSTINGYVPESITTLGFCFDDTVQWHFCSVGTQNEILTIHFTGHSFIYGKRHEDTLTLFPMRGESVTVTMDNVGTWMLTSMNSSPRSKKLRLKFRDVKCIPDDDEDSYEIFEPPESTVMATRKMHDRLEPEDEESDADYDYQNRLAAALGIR
T1 sequence (looked up) 2: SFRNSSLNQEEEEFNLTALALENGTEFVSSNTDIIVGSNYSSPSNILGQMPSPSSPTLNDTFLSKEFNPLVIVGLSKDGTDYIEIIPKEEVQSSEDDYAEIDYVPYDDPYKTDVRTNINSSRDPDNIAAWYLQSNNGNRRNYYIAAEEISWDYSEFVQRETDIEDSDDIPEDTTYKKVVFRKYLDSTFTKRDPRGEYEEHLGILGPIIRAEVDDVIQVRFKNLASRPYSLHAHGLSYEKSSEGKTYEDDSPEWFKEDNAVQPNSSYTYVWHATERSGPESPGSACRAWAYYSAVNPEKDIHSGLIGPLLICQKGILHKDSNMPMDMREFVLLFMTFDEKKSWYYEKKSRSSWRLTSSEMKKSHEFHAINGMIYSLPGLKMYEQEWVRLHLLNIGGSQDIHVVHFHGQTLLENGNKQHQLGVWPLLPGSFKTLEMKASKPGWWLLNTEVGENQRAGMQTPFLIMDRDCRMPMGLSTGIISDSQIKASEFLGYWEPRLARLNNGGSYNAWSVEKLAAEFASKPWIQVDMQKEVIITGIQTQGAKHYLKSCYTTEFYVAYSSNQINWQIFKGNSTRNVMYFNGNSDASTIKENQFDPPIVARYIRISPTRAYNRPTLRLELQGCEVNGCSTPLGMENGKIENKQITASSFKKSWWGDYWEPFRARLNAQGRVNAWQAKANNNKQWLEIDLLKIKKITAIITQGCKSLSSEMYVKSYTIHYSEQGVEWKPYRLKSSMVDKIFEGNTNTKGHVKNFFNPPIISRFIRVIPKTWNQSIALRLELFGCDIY

T2: activated factor V (FVa) (human, UniProt P12259 29-737; P12259 1574-2224)
T2 construct: coagulation factor V heavy chain (HC; domains A1-A2); coagulation factor V light chain (LC; domains A3-C1-C2); source: prepared by treatment of FV-short (BHK cells) with thrombin, purified
T2 sequence (looked up) 1: T1 sequence (looked up) 1
T2 sequence (looked up) 2: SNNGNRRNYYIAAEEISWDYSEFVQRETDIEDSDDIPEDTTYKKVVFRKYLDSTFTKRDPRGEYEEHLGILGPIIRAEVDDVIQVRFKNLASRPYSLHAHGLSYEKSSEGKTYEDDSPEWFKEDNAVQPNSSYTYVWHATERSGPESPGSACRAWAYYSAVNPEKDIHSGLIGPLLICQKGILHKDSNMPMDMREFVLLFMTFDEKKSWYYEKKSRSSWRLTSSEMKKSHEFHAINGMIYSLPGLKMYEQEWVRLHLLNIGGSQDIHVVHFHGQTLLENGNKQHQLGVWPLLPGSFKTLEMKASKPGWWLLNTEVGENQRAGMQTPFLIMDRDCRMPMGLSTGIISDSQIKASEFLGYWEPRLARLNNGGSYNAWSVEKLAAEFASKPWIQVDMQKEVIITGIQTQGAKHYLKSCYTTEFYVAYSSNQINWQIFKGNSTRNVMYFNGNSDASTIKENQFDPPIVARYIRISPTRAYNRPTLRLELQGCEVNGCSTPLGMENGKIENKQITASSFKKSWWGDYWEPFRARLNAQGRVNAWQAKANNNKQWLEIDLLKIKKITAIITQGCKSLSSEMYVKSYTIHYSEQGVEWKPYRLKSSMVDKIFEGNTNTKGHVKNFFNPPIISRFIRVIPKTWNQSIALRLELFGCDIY

T3: FV-short-QR∗ (FV-short-QR precleaved at Arg1545 with RVV-V) (human, UniProt P12259 29-1573; P12259 1574-2224, Δ756–1458 | Arg^709 replaced with Gln)
T3 construct: coagulation factor V heavy chain joined to the shortened B-domain with AR2; coagulation factor V light chain (LC), released by cleavage at Arg1545; also called FV-short cleaved at Arg1545; source: FV-short-QR (BHK cells, purified), 300 nM incubated with 2 nM RVV-V 30 min at 37 °C
T3 sequence (looked up) 1: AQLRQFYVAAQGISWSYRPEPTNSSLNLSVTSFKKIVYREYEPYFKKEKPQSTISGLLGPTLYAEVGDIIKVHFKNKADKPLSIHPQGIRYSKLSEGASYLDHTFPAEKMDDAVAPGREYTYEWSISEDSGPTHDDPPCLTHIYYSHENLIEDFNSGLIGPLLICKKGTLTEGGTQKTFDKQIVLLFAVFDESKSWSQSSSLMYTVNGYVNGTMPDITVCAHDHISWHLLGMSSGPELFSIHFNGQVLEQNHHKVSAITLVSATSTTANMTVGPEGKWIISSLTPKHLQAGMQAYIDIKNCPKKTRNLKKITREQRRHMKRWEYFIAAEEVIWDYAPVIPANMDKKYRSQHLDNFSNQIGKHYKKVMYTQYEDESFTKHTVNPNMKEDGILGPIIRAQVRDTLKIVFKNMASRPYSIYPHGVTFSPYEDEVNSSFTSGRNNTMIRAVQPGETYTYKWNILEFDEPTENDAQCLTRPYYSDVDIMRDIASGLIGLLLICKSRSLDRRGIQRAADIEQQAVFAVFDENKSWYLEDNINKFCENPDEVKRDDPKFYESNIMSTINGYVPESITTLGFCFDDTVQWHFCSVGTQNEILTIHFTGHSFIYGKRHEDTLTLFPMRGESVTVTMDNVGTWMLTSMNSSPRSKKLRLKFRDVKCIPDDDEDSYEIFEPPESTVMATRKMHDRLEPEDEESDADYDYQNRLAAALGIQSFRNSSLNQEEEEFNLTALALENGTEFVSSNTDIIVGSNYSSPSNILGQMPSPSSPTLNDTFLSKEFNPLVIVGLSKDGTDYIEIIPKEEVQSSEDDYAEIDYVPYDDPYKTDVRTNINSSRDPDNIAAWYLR
T3 sequence (looked up) 2: T2 sequence (looked up) 2

B1: TFPIα-BR, fragment containing the BR sequence of TFPIα (domain or fragment)
chain: KKGFIQRISKGGLIKTKRKRKKQRVKIAYEEIFVKNM
modifications: limits not printed (refs 17, 18); taken as the whole C-terminal tail after Kunitz 3 (mature 240-276); expressed in E. coli, unglycosylated

How the values were obtained:
Details in all cases: both partners purified
[1] = biological target: T1, FV-short-RQ∗ (FV-short-RQ precleaved at …); assay: fluorescence polarisation; steady-state anisotropy; FV species (0–100 nM) titrated into 20 nM OG488-TFPIα-BR and 50 μM PCPS, assay buffer (20 mM HEPES, 0.15 M NaCl, 5 mM CaCl2, 0.1% PEG 8000, pH 7.4), 25 °C; fit to independent, noninteracting sites
[2] = biological target: T4, FV-short (factor V isoform with B-domain residues 756 to 1458 deleted) (human); assay: as above
T4 construct: coagulation factor V, splicing isoform FV-short, single chain, lacks the BR and retains AR2; source: BHK cells, purified

[3] = biological target: T1, FV-short-RQ∗ (FV-short-RQ precleaved at …); assay: inhibition of prothrombinase (prothrombin activation assay); 0.1 nM cofactor species, 50 μM PCPS, 1.4 μM prothrombin, 3 μM DAPA, TFPIα-BR 0–7 μM, started with 2 nM FXa, assay buffer, 25 °C; Ki from the equation for competitive inhibition
[4] = biological target: T5, FV-short-QQ (FV-short with Arg709 and Arg1545 replaced with Gln) (human); assay: as above
T5 construct: coagulation factor V, FV-short with both thrombin cleavage sites changed to Gln, not cleaved by thrombin; source: BHK cells, purified

[5] = biological target: T4, FV-short (factor V isoform with …); assay: as above
[6] = biological target: T5, FV-short-QQ (FV-short with Arg709 and …); assay: fluorescence polarisation; competition: unlabeled TFPIα-BR (0–2 μM) or TFPIα (0–1 μM) titrated into 25 nM OG488-TFPIα-BR, 20 nM FV-short-QQ and 50 μM PCPS, assay buffer, 25 °C; stoichiometry of 1 assumed
activated factor V (FVa) = biological target: T2, activated factor V (FVa); assay: inhibition of prothrombinase (prothrombin activation assay); 0.1 nM cofactor species, 50 μM PCPS, 1.4 μM prothrombin, 3 μM DAPA, TFPIα-BR 0–7 μM, started with 2 nM FXa, assay buffer, 25 °C; Ki from the equation for competitive inhibition
[7] = biological target: T1, FV-short-RQ∗ (FV-short-RQ precleaved at …); assay: as above; remark: listed apart in the source
[8] = biological target: T3, FV-short-QR∗ (FV-short-QR precleaved at …); assay: as above
[9] = biological target: T5, FV-short-QQ (FV-short with Arg709 and …); assay: as above; remark: listed apart in the source
[10] = biological target: T4, FV-short (factor V isoform with …); assay: as above; remark: listed apart in the source

Binder | Kd [1] [nM] | Kd [2] [nM] | Ki [3] [nM] | Ki [4] [nM] | Ki [5] [nM] | Kd [6] [nM] | Ki (activated factor V (FVa)) [µM] | Ki [7] [nM] | Ki [8] [µM] | Ki [9] [nM] | Ki [10] [nM]
{C(Oregon Green488 maleimide)}-KKGFIQRISKGGLIKTKRKRKKQRVKIAYEEIFVKNM (domain or fragment) [OG488-TFPIα-BR, TFPIα-BR modified with Oregon Green488 maleimide] | 2.16 ± 0.25 | 0.71 ± 0.11 |  |  |  |  |  |  |  |  | 
B1 |  |  | 86.1 | 21.5 | 19.8 | 2.25 ± 0.2 | > 7 | 83.9 | > 7 | 23.4 | 23.6
